Measurements as given in publication PMC9428852, “The N-linker region of hERG1a upregulates hERG1b potassium channels” (The Journal of Biological Chemistry, 2022).

Target: T1, 6xHis-hERG1a N1–354-FLAG (human, UniProt Q12809 1-354)
T1 construct: Plasmid made commercially (BioInnovatise); also called hERG1a N-terminal region; source: bacteria, M15 cells, purified (nickel column); not shown: His6, N-terminal, kept; FLAG, C-terminal, kept
Test: pull-down; GST or GST fusion protein bound to glutathione beads, incubated with 6xHis fusion protein in buffer S (50 mM Tris pH 8, 150 mM NaCl, 25 mM imidazole, 0.25% Tween-20) with 0.5% CHAPS, overnight at 4 °C; washed; Western blot with anti-FLAG
Details: both partners purified

T1 sequence (Q12809 1-354): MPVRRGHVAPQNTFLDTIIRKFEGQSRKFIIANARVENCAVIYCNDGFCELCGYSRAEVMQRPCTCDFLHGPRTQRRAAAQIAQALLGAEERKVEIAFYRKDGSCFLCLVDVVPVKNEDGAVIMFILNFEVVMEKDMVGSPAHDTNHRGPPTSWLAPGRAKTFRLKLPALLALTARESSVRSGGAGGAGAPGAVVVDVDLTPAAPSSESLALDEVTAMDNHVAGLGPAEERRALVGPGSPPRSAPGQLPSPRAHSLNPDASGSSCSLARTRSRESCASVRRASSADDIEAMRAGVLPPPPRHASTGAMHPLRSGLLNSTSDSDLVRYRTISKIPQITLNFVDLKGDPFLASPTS

B1: GST-hERG1b N1–56 (domain or fragment, human, UniProt Q12809-2 1-56, looked up)
chain: MAAPAGKASRTGALRPRAQKGRVRRAVRISSLVAQEVLSLGADVLPEYKLQAPRIH
notes: hERG1b (KCNH2 isoform 1b), human, N-terminal region residues 1-56; numbers count on: hERG1b; Plasmid made commercially (BioInnovatise); also called hERG1b N-terminal region; GST–hERG1b N-terminal region; not shown: GST, N-terminal, kept
- binding result: binds
